The data set deals with the molecule itself. Briefly: SEC; 1 ml (20 mg, 400 µM) purified Csk loaded onto a HiLoad 16/60 Superdex 200 column; apparent molecular weight from partition coefficients of standard proteins. (In general: In gel filtration, larger molecules generally elute earlier.)

Consider one protein from article PMC8989918, “SH3-domain mutations selectively disrupt Csk homodimerization or PTPN22 binding” (Scientific Reports, 2022).

B1: purified recombinant Csk WT (natural protein, mouse, UniProt P41241 1-450, looked up)
chain: MSAIQAAWPSGTECIAKYNFHGTAEQDLPFCKGDVLTIVAVTKDPNWYKAKNKVGREGIIPANYVQKREGVKAGTKLSLMPWFHGKITREQAERLLYPPETGLFLVRESTNYPGDYTLCVSCEGKVEHYRIMYHASKLSIDEEVYFENLMQLVEHYTTDADGLCTRLIKPKVMEGTVAAQDEFYRSGWALNMKELKLLQTIGKGEFGDVMLGDYRGNKVAVKCIKNDATAQAFLAEASVMTQLRHSNLVQLLGVIVEEKGGLYIVTEYMAKGSLVDYLRSRGRSVLGGDCLLKFSLDVCEAMEYLEGNNFVHRDLAARNVLVSEDNVAKVSDFGLTKEASSTQDTGKLPVKWTAPEALREKKFSTKSDVWSFGILLWEIYSFGRVPYPRIPLKDVVPRVEKGYKMDAPDGCPPAVYEVMKNCWHLDAATRPTFLQLREQLEHIKTHELHL
notes: Csk, tyrosine-protein kinase, mouse, full length (50.6 kDa), from pGEX-6P-3; also called WT Csk; full-length Csk; source: E. coli BL21(DE3), purified (GST Gravitrap, PreScission cleavage, HiTrap Q, Superdex 200); not shown: GST, N-terminal, cleaved
In the case of B1, the binding result is listed as “binds”.
